Data taken from patent US20260116987A1 (Gilead, published 2026).

How the values were obtained:
[1] = biological target: T1, Human CCR4 expressed on CHO-S cells (human, UniProt P51679 1-360); assay: flow cytometry (PE-A), human CCR4-expressing CHO-S cells against parental CHO-S cells; antibody concentration not given
T1 construct: whole, on cells; also called CCR4-expressing CHO-S cells
T1 sequence (looked up): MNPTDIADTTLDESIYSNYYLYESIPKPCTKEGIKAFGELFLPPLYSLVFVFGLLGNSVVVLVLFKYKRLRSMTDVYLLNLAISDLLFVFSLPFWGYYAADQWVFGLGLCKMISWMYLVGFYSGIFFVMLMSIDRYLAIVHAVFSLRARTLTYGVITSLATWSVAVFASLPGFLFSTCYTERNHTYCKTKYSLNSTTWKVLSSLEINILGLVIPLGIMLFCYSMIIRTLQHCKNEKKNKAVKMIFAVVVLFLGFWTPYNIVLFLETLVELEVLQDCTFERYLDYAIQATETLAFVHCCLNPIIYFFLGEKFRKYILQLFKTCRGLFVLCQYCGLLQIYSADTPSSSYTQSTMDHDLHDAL

[2] = biological target: T2, Human CCR8 (C-C chemokine receptor type 8) expressed on CHO-S cells (human, UniProt P51685 1-355); assay: cell-based or functional assay
T2 sequence (P51685 whole entry): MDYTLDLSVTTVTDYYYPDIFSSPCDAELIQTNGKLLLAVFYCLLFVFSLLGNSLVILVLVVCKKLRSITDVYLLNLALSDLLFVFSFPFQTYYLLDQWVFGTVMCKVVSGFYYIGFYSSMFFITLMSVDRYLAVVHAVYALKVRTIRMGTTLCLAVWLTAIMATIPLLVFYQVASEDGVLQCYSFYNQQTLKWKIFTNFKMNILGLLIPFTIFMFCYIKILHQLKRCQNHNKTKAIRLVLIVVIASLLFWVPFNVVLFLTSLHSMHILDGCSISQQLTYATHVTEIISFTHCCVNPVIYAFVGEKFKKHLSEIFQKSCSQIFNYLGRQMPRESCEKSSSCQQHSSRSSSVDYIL

[3] = biological target: T1, Human CCR4 expressed on CHO-S cells; assay: flow cytometry
[4] = biological target: T2, Human CCR8 (C-C chemokine receptor type …); assay: flow cytometry epitope binning, tandem format, human CCR8-overexpressing cells; competitor 19-O07
Protocol: (§1) A subset of antibodies against human CCR8 were epitope binned using flow cytometry method in tandem format. Briefly, one set of antibodies was biotinylated. Human CCR8-overexpressing cells were incubated at 4° C., with the non-biotinylated antibodies at 10 μg/mL for 1 hour, then without washing the biotinylated antibodies were added at 10 μg/mL. After a further 1-hour incubation, cells were washed three times and then stained with streptavidin-phycoerythrin (PE-strep) secondary antibody for 30 minutes. Binding competition was determined by detecting PE by flow cytometry. The response values were normalized as the % of the maximum binding of the individual antibody.

[5] = biological target: T3, Human CCR8 on human CCR8-overexpression lipoparticles (human, UniProt P51685 1-355); assay: sequential format ELISA on human CCR8-overexpression lipoparticles; competitor 1-K17
T3 sequence (P51685 whole entry): as above

[6] = biological target: T3, Human CCR8 on human CCR8-overexpression …; assay: sequential format ELISA on human CCR8-overexpression lipoparticles; competitor 19-O07
[7] = biological target: T2, Human CCR8 (C-C chemokine receptor type …); assay: flow cytometry epitope binning, tandem format, human CCR8-overexpressing cells; competitor 6-B09
Protocol: as §1

[8] = biological target: T2, Human CCR8 (C-C chemokine receptor type …); assay: flow cytometry epitope binning, tandem format, human CCR8-overexpressing cells; competitor 7-B16
Protocol: as §1

[9] = biological target: T2, Human CCR8 (C-C chemokine receptor type …); assay: flow cytometry epitope binning, tandem format, human CCR8-overexpressing cells; competitor 1-K17
Protocol: as §1

[10] = biological target: T3, Human CCR8 on human CCR8-overexpression …; assay: sequential format ELISA on human CCR8-overexpression lipoparticles; competitor 6-B09
[11] = biological target: T2, Human CCR8 (C-C chemokine receptor type …); assay: flow cytometry epitope binning, tandem format, human CCR8-overexpressing cells; competitor 1-K16
Protocol: as §1

[12] = biological target: T3, Human CCR8 on human CCR8-overexpression …; assay: sequential format ELISA on human CCR8-overexpression lipoparticles; competitor 7-B16
[13] = biological target: T3, Human CCR8 on human CCR8-overexpression …; assay: sequential format ELISA on human CCR8-overexpression lipoparticles; competitor 1-K16
[14] = biological target: T2, Human CCR8 (C-C chemokine receptor type …); assay: cell-based or functional assay; remark: listed apart in the source

B1: 1-K17 (mouse hybridoma antibody) (antibody, mouse IgG1, kappa)
heavy: QVQLQQPGAELVKPGASVKMSCKASGYTFTSYNMHWVKQTPGQGLEWIGAIYPGNGDTSYNQKFKGKATLTADKSSSTAYMHLSSLTSEDSAVYYCARKGGTPFAYWGQGTLLTVSAAKTTPPSVYPLAPGSAAQTNSMVTLGCLVKGYFPEPVTVTWNSGSLSSGVHTFPAVLESDLYTLSSSVTVPSSPRPSETVTCNVAHPASSTKVDKKIVPRDCGCKPCICTVPEVSSVFIFPPKPKDVLTITLTPKVTCVVVDISKDDPEVQFSWFVDDVEVHTAQTQPREEQFNSTFRSVSELPIMHQDWLNGKEFKCRVNSAAFPAPIEKTISKTKGRPKAPQVYTIPPPKEQMAKDKVSLTCMITDFFPEDITVEWQWNGQPAENYKNTQPIMNTNGSYFVYSKLNVQKSNWEAGNTFTCSVLHEGLHNHHTEKSLSHSPG
light: DVVMTQTPLSLPVSLGDQASISCRSSQSLVHSNGNTYLYWYLQKPGQSPKLLIYKVSNRFSGVPDRFSGSGSGTDFTLKISRVEAEDLGVYFCSQSTHVPYTFGGGTKLEIKRADAAPTVSIFPPSSEQLTSGGASVVCFLNNFYPKDINVKWKIDGSERQNGVLNSWTDQDSKDSTYSMSSTLTLTKDEYERHNSYTCEATHKTSTSPIVKSFNRNEC
[1]
  binding result: no binding

B2: 19-O07 chimera (human IgG1) (antibody)
heavy: not shown
light: DVVMTQTPLTLSVTIGQPASISCKSSQSLLYSNGKTYLNWLLQRPGQSPKRLIYLVSKLDSGVPDRFTGSGSGTDFTLKISRVEAEDLGVYYCVQGTRFPWTFGGGTNLEIKRTVAAPSVFIFPPSDEQLKSGTASVVCLLNNFYPREAKVQWKVDNALQSGNSQESVTEQDSKDSTYSLSSTLTLSKADYEKHKVYACEVTHQGLSSPVTKSFNRGEC
notes: also called 19-007; 19-O07 chimeric antibody
[2]
  IC50, antagonist activity in DiscoverX PathHunter beta-arrestin assay with 13.7 nM human CCL1: 995 µg/mL
[3]
  binding result: no binding
[4]
  % of the maximum binding: 54%
[5]
  ELISA epitope binning signal: 0.784
[6]
  ELISA epitope binning signal: 0.817
[7]
  % of the maximum binding: 39%
[8]
  % of the maximum binding: 108%
[9]
  % of the maximum binding: 91%
[10]
  ELISA epitope binning signal: 0.679
[11]
  % of the maximum binding: 109%
[12]
  ELISA epitope binning signal: 1.02
[13]
  ELISA epitope binning signal: 0.882

B3: 6-B09 (mouse hybridoma antibody) (antibody, mouse IgG2a, kappa)
heavy: QVQLKESGPGLVAPSQSLSITCTVSGFSLARYDISWIRQPPGKGLEWLGVIWTGGGTNYNSAFMSRLSISKDNSKSQVFLKMNGLQTDDTAIYYCVSIRYDETYWGQGTLVTVSAAKTTAPSVYPLAPVCGDTTGSSVTLGCLVKGYFPEPVTLTWNSGSLSSGVHTFPAVLQSDLYTLSSSVTVTSSTWPSQSITCNVAHPASSTKVDKKIEPRGPTIKPCPPCKCPAPNLLGGPSVFIFPPKIKDVLMISLSPIVTCVVVDVSEDDPDVQISWFVNNVEVHTAQTQTHREDYNSTLRVVSALPIQHQDWMSGKEFKCKVNNKDLPAPIERTISKPKGSVRAPQVYVLPPPEEEMTKKQVTLTCMVTDFMPEDIYVEWTNNGKTELNYKNTEPVLDSDGSYFMYSKLRVEKKNWVERNSYSCSVVHEGLHNHHTTKSFSRTPG
light: QIVLTQSPAIMSASPGEKVTITCSASSSVIYMHWFQQKPGTSPKLWIYATSNLASGVPARFSGSGSGTSYSLTISRMEAEDAATYYCQQRSSYPLTFGAGTKLELKRADAAPTVSIFPPSSEQLTSGGASVVCFLNNFYPKDINVKWKIDGSERQNGVLNSWTDQDSKDSTYSMSSTLTLTKDEYERHNSYTCEATHKTSTSPIVKSFNRNEC
[1]
  binding result: no binding

B4: 13-E16 (mouse hybridoma antibody) (antibody, mouse IgG2a, kappa)
heavy: EVQLVETGGGLVQPKGSLKLSCAASGFTFSTNAMNWVRQAPGKGLEWIARIRSKSNNYATHYADSVKDRFTISRDDSQSILHLQMNNLKNEDTAMYYCVRDSHYYVSTYVGLAWFAYWGQGTLVTVSAAKTTAPSVYPLAPVCGDTTGSSVTLGCLVKGYFPEPVTLTWNSGSLSSGVHTFPAVLQSDLYTLSSSVTVTSSTWPSQSITCNVAHPASSTKVDKKIEPRGPTIKPCPPCKCPAPNLLGGPSVFIFPPKIKDVLMISLSPIVTCVVVDVSEDDPDVQISWFVNNVEVHTAQTQTHREDYNSTLRVVSALPIQHQDWMSGKEFKCKVNNKDLPAPIERTISKPKGSVRAPQVYVLPPPEEEMTKKQVTLTCMVTDFMPEDIYVEWTNNGKTELNYKNTEPVLDSDGSYFMYSKLRVEKKNWVERNSYSCSVVHEGLHNHHTTKSFSRTPG
light: QIVLTQSPAIMSASPGEKVTITCSASSSVSYMHWFQQKPGTSPKLWIYSTSNLASGVPARFSGSGSGTSYFLTISRMEAEDAATYYCQQRSSYPYTFGGGTKLERKRADAAPTVSIFPPSSEQLTSGGASVVCFLNNFYPKDINVKWKIDGSERQNGVLNSWTDQDSKDSTYSMSSTLTLTKDEYERHNSYTCEATHKTSTSPIVKSFNRNEC
[1]
  binding result: no binding

B5: 1-K16 chimera (human IgG1) (antibody)
heavy: not shown
light: DIVMTQAAPSVPVTPGESVSISCRSSKSLLHSNGNTYLYWFLQRPGQSPQLLIYRMSNLASGVPDRFSGSGSGTAFTLRISRVEAEDVGVYYCMQHLEYPFTFGAGTKLELKRTVAAPSVFIFPPSDEQLKSGTASVVCLLNNFYPREAKVQWKVDNALQSGNSQESVTEQDSKDSTYSLSSTLTLSKADYEKHKVYACEVTHQGLSSPVTKSFNRGEC
notes: also called 1-K16 chimeric antibody
[2]
  IC50, antagonist activity in DiscoverX PathHunter beta-arrestin assay with 13.7 nM human CCL1: 4.55 µg/mL
[3]
  binding result: no binding
[4]
  % of the maximum binding: 149%
[5]
  ELISA epitope binning signal: 0.794
[6]
  ELISA epitope binning signal: 1.49
[7]
  % of the maximum binding: 167%
[8]
  % of the maximum binding: 88%
[9]
  % of the maximum binding: 32%
[10]
  ELISA epitope binning signal: 0.964
[11]
  % of the maximum binding: 31%
[12]
  ELISA epitope binning signal: 0.758
[13]
  ELISA epitope binning signal: 0.264

B6: 13-E16 chimera (human IgG1) (antibody)
heavy: not shown
light: QIVLTQSPAIMSASPGEKVTITCSASSSVSYMHWFQQKPGTSPKLWIYSTSNLASGVPARFSGSGSGTSYFLTISRMEAEDAATYYCQQRSSYPYTFGGGTKLERKRTVAAPSVFIFPPSDEQLKSGTASVVCLLNNFYPREAKVQWKVDNALQSGNSQESVTEQDSKDSTYSLSSTLTLSKADYEKHKVYACEVTHQGLSSPVTKSFNRGEC
notes: also called 13-E16 chimeric antibody
[2]
  IC50, antagonist activity in DiscoverX PathHunter beta-arrestin assay with 13.7 nM human CCL1: 12.6 µg/mL
[3]
  binding result: no binding
[14]
  EC50 of ADCC function (Promega ADCC reporter bioassay): 0.0549 µg/mL

B7: 6-B09 chimera (human IgG1) (antibody)
heavy: not shown
light: QIVLTQSPAIMSASPGEKVTITCSASSSVIYMHWFQQKPGTSPKLWIYATSNLASGVPARFSGSGSGTSYSLTISRMEAEDAATYYCQQRSSYPLTFGAGTKLELKRTVAAPSVFIFPPSDEQLKSGTASVVCLLNNFYPREAKVQWKVDNALQSGNSQESVTEQDSKDSTYSLSSTLTLSKADYEKHKVYACEVTHQGLSSPVTKSFNRGEC
notes: also called 6-B09 chimeric antibody
[3]
  binding result: no binding
[4]
  % of the maximum binding: 32%
[5]
  ELISA epitope binning signal: 0.82
[6]
  ELISA epitope binning signal: 0.577
[7]
  % of the maximum binding: 44%
[8]
  % of the maximum binding: 89%
[9]
  % of the maximum binding: 94%
[10]
  ELISA epitope binning signal: 0.512
[11]
  % of the maximum binding: 102%
[12]
  ELISA epitope binning signal: 0.776
[13]
  ELISA epitope binning signal: 0.8
